Experimental data published in IntAct's records for PubMed 22001206.

B1: Dipeptidyl peptidase 4 (Homo sapiens), P27487 (parent)
chain: MKTPWKVLLGLLGAAALVTIITVPVVLLNKGTDDATADSRKTYTLTDYLKNTYRLKLYSLRWISDHEYLYKQENNILVFNAEYGNSSVFLENSTFDEFGHSINDYSISPDGQFILLEYNYVKQWRHSYTASYDIYDLNKRQLITEERIPNNTQWVTWSPVGHKLAYVWNNDIYVKIEPNLPSYRITWTGKEDIIYNGITDWVYEEEVFSAYSALWWSPNGTFLAYAQFNDTEVPLIEYSFYSDESLQYPKTVRVPYPKAGAVNPTVKFFVVNTDSLSSVTNATSIQITAPASMLIGDHYLCDVTWATQERISLQWLRRIQNYSVMDICDYDESSGRWNCLVARQHIEMSTTGWVGRFRPSEPHFTLDGNSFYKIISNEEGYRHICYFQIDKKDCTFITKGTWEVIGIEALTSDYLYYISNEYKGMPGGRNLYKIQLSDYTKVTCLSCELNPERCQYYSVSFSKEAKYYQLRCSGPGLPLYTLHSSVNDKGLRVLEDNSALDKMLQNVQMPSKKLDFIILNETKFWYQMILPPHFDKSKKYPLLLDVYAGPCSQKADTVFRLNWATYLASTENIIVASFDGRGSGYQGDKIMHAINRRLGTFEVEDQIEAARQFSKMGFVDNKRIAIWGWSYGGYVTSMVLGSGSGVFKCGIAVAPVSRWEYYDSVYTERYMGLPTPEDNLDHYRNSTVMSRAENFKQVEYLLIHGTADDNVHFQQSAQISKALVDVGVDFQAMWYTDEDHGIASSTAHQHIYTHMSHFIKQCFSLP
partner: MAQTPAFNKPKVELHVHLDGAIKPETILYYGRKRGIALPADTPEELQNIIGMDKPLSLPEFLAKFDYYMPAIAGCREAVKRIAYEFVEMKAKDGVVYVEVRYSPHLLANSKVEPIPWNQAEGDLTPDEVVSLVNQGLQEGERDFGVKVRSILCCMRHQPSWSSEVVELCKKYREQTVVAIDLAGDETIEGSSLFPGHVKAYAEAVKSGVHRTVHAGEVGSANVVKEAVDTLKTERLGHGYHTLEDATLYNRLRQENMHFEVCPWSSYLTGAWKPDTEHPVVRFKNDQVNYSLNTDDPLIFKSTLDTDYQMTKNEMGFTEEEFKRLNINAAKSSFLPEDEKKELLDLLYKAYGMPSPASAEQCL

Variants of: B1
Conditions: with ada_bovin ADA

Y256A was tested. Which “effect of a mutation on the interaction” value did it give?
Its value is “decreasing interaction”.

Variants of: B1
Conditions: with ada_bovin ADA
Remark: another data set of the same source

With Y238A as the variant, how does the “effect of a mutation on the interaction” value read?
Its value is “decreasing interaction”.

Variants of: B1
Conditions: with ada_bovin ADA
Remark: another data set of the same source

For Y248A, which “effect of a mutation on the interaction” value is on record?
The value was “decreasing interaction”.
